In the RNAGym collection of RNA variant scans (doi:10.7554/elife.80360):

B1: HDV Ribozyme (parent)
chain: GGCCGGCAUGGUCCCAGCCUCCUCGCUGGCGCCGGCUGGGCAACAUUCCGAGGGGACCGUCCCCUCGGUAAUGGCGAAUGGGACCCA

Variants of: B1
Assay: self-cleavage, relative activity (ratio to wild type); higher = more cleavage; co-transcriptional

| Variant | self-cleavage |
| --- | --- |
| GGCCGGCAUGGUCCCAGCAUCCUCGCUGGCGCCGGAUGGGCAACAUUCCGAGGGGACCGUCCCCUCGGUAAUGGCGAAUGGGACCCA [C19A C36A] | 0.119 |
| GGCCGGCAUGGUCCCAGCAUCCUCGCUGGCGCCGGCUGGGCAACAUUCCGAGGGGACCGUCCCCUCGCUAAUGGCGAAUGGGACCCA [C19A G68C] | 0.149 |
| GGCCGGCAUGGUCCCAGCAUCCUCGCUGGCGCCGGCUGGGCAACAUUCCGAGGGGACCGUCCCCUCGUUAAUGGCGAAUGGGACCCA [C19A G68U] | 0.178 |
| GGCCGGCAUGGUCCCAGCAUCCUCGCUGGCGCCGGCUGGGCAACAUUCCGAGGGGACCGUCCCCUGGGUAAUGGCGAAUGGGACCCA [C19A C66G] | 0.115 |
| GGCCGGCAUGGUCCCAGCAUCCUCGCUGGCGCCGGCUGGGCAACAUUCCGAGGGGACCGUCCCCUAGGUAAUGGCGAAUGGGACCCA [C19A C66A] | 0.211 |
| GGCCGGCAUGGUCCCAGCAUCCUCGCUGGCGCCGGCUGGGCAACAUUCCGAGGGGACCGUGCCCUCGGUAAUGGCGAAUGGGACCCA [C19A C61G] | 0.095 |
| GGCCGGCAUGGUCCCAGCAUCCUCGCUGGCGCCGGCUGGGCAACAUUCCGAGGGGACCGUACCCUCGGUAAUGGCGAAUGGGACCCA [C19A C61A] | 0.12 |
| GGCCGGCAUGGUCCCAGCAUCCUCGCUGGCGCCGGCUGGGCAACAUUCCGAGGGGACCGUUCCCUCGGUAAUGGCGAAUGGGACCCA [C19A C61U] | 0.0671 |
| GGCCGGCAUGGUCCCAGCAUCCUCGCUGGCGCCGGCUGGGUAACAUUCCGAGGGGACCGUCCCCUCGGUAAUGGCGAAUGGGACCCA [C19A C41U] | 0.0382 |
| GGCCGGCAUGGUCCCAGCAUCCUCGCUGGCGCCGGCUGGGAAACAUUCCGAGGGGACCGUCCCCUCGGUAAUGGCGAAUGGGACCCA [C19A C41A] | 0.0268 |
| GGCCGGCAUGGUCCCAGCAUCCUCGCUGGCGCCGGCUGGGGAACAUUCCGAGGGGACCGUCCCCUCGGUAAUGGCGAAUGGGACCCA [C19A C41G] | 0 |
| GGCCGGCAUGGUCCCAGCAUCCUCGCUGGCGCCGGCUGGGCAAUAUUCCGAGGGGACCGUCCCCUCGGUAAUGGCGAAUGGGACCCA [C19A C44U] | 0.0191 |
| GGCCGGCAUGGUCCCAGCAUCCUCGCUGGCGCCGGCUGGGCAAAAUUCCGAGGGGACCGUCCCCUCGGUAAUGGCGAAUGGGACCCA [C19A C44A] | 0.149 |
| GGCCGGCAUGGUCCCAGCAUCCUCGCUGGCGCCGGCUGGGCAACAUUCCGAGGGGACCGUCACCUCGGUAAUGGCGAAUGGGACCCA [C19A C62A] | 0.0536 |
| GGCCGGCAUGGUCCCAGCAUCCUCGCUGGCGCCGGCUGGGCAACAUUCCGAGGGGACCGUCCGCUCGGUAAUGGCGAAUGGGACCCA [C19A C63G] | 0.256 |
| GGCCGGCAUGGUCCCAGCAUCCUCGCUGGCGCCGGCUGGGCAACAUUCCGAGGGGACCGUCCUCUCGGUAAUGGCGAAUGGGACCCA [C19A C63U] | 0.1 |
| GGCCGGCAUGGUCCCAGCAUCCUCGCUGGCGCCGGCUGGGCAACAUUCCGAGGGGACCGUCCCUUCGGUAAUGGCGAAUGGGACCCA [C19A C64U] | 0.128 |
| GGCCGGCAUGGUCCCAGCAUCCUCGCUGGCGCCGGCUGGGCAACAUUCCGAGGGGACCGUCCCGUCGGUAAUGGCGAAUGGGACCCA [C19A C64G] | 0.111 |
| GGCCGGCAUGGUCCCAGCAUCCUCGCUGGCGCCGGCUGGGCAACAUUCCGAGGGGACCGUCCCAUCGGUAAUGGCGAAUGGGACCCA [C19A C64A] | 0.141 |
| GGCCGGCAUGGUCCCAGCAUCCUCGCUGGCGCCGGCUGGGCAACAUUCCGAGGGGACCGUCCCCUCGGUAAUGGCGAAUGGUACCCA [C19A G82U] | 0.0898 |
| GGCCGGCAUGGUCCCAGCAUCCUCGCUGGCGCCGGCUGGGCAACAUUCCGAGGGGACCGUCCCCUCGGUAAUGGCGAAUGGCACCCA [C19A G82C] | 0.133 |
| GGCCGGCAUGGUCCCAGCAUCCUCGCUGGCGCCGGCUGGGCAACAUUCCGAGGGGACCGUCCCCUCGGUAAUGGCGAAUGGGACCGA [C19A C86G] | 0.0548 |

| Variant | self-cleavage |
| --- | --- |
| GGCCGGCAUGGUCCCAGCAUCCUCGCUGGCGCCGGCUGGGCAACAUUCCGAGGGGACCGUCCCCUCGGUAAUGGCGAAUGGGACCUA [C19A C86U] | 0.0674 |
| GGCCGGCAUGGUCCCAGCAUCCUCGCUGGCGCCGGCUGGGCAACAUUCCGAGGGGACCGUCCCCUCGGUAAUGGCGAAUGGGACCAA [C19A C86A] | 0.273 |
| GGCCGGCAUGGUCCCAGCAUCCUCGCGGGCGCCGGCUGGGCAACAUUCCGAGGGGACCGUCCCCUCGGUAAUGGCGAAUGGGACCCA [C19A U27G] | 0.158 |
| GGCCGGCAUGGUCCCAGCAUCCUCGCUGGCGCCGGCAGGGCAACAUUCCGAGGGGACCGUCCCCUCGGUAAUGGCGAAUGGGACCCA [C19A U37A] | 0.0519 |
| GGCCGGCAUGGUCCCAGCAUCCUCGCUGGCGGCGGCUGGGCAACAUUCCGAGGGGACCGUCCCCUCGGUAAUGGCGAAUGGGACCCA [C19A C32G] | 0.116 |
| GGCCGGCAUGGUCCCAGCAUCCUCGCUGGCGUCGGCUGGGCAACAUUCCGAGGGGACCGUCCCCUCGGUAAUGGCGAAUGGGACCCA [C19A C32U] | 0.0841 |
| GGCCGGCAUGGUCCCAGCAUCCUCGCUGGUGCCGGCUGGGCAACAUUCCGAGGGGACCGUCCCCUCGGUAAUGGCGAAUGGGACCCA [C19A C30U] | 0.0623 |
| GGCCGGCAUGGUCCCAGCAUCCUCGCUGGGGCCGGCUGGGCAACAUUCCGAGGGGACCGUCCCCUCGGUAAUGGCGAAUGGGACCCA [C19A C30G] | 0.0437 |
| GGCCGGCAUGGUCCCAGCAUCCUCGCUGGCGCCGGCUGUGCAACAUUCCGAGGGGACCGUCCCCUCGGUAAUGGCGAAUGGGACCCA [C19A G39U] | 0.0639 |
| GGCCGGCAUGGUCCCAGCAUCCUCGCUGGCGCCGGCUGGGCAACAUUCCGAGGGAACCGUCCCCUCGGUAAUGGCGAAUGGGACCCA [C19A G55A] | 0.0906 |
| GGCCGGCAUGGUCCCAGCAUCCUCGCUGGCGCCGGCUGGGCAACAUUCCGAGGAGACCGUCCCCUCGGUAAUGGCGAAUGGGACCCA [C19A G54A] | 0.0536 |
| GGCCGGCAUGGUCCCAGCAUCCUCGCUGGCGCCGGCUGGGCAACAUUCCGAGGGGACCGUCCCCUCGGUAAUGCCGAAUGGGACCCA [C19A G74C] | 0.125 |
| GGCCGGCAUGGUCCCAGCAUCCUCGCUGGCGCCGGCUGGGCAACAUUCCGAGGGGACCGUCCCCUCGGUAAUGUCGAAUGGGACCCA [C19A G74U] | 0.101 |
| GGCCGGCAUGGUCCCAGCAUCCUCGCUGGCGCCGGCUGGGCAACAUUCCGAGGGGACUGUCCCCUCGGUAAUGGCGAAUGGGACCCA [C19A C58U] | 0.168 |
| GGCCGGCAUGGUCCCAGCAUCCUCGCUGGCGCCGGCUGGGCAACAUUCCGAGGGGACGGUCCCCUCGGUAAUGGCGAAUGGGACCCA [C19A C58G] | 0.0519 |
| GGCCGGCAUGGUCCCAGCAUCCUCGCUGGCGCCGGCUGGGCAACAUUCCGAGGGGACCGUCCCCUCGGUAAUGGCGAAUAGGACCCA [C19A G80A] | 0.0329 |
| GGCCGGCAUGGUCCCAGCAUCCUCGCUGCCGCCGGCUGGGCAACAUUCCGAGGGGACCGUCCCCUCGGUAAUGGCGAAUGGGACCCA [C19A G29C] | 0.0941 |
| GGCCGGCAUGGUCCCAGCAUCCUCGCUGACGCCGGCUGGGCAACAUUCCGAGGGGACCGUCCCCUCGGUAAUGGCGAAUGGGACCCA [C19A G29A] | 0 |
| GGCCGGCAUGGUCCCAGCAUCCUCGCUGGCGCCGCCUGGGCAACAUUCCGAGGGGACCGUCCCCUCGGUAAUGGCGAAUGGGACCCA [C19A G35C] | 0.125 |
| GGCCGGCAUGGUCCCAGCAUCCACGCUGGCGCCGGCUGGGCAACAUUCCGAGGGGACCGUCCCCUCGGUAAUGGCGAAUGGGACCCA [C19A U23A] | 0.0302 |
| GGCCGGCAUGGUCCCAGCAUCCUCGCUGGCGCCGGCUGGGCAACAUUCCGAAGGGACCGUCCCCUCGGUAAUGGCGAAUGGGACCCA [C19A G52A] | 0.0863 |
| GGCCGGCAUGGUCCCAGCAUCCUCGCUGGCGCCGGCUGGGCAACAUUCCGAGCGGACCGUCCCCUCGGUAAUGGCGAAUGGGACCCA [C19A G53C] | 0.23 |

| Variant | self-cleavage |
| --- | --- |
| GGCCGGCAUGGUCCCAGCAUCCUCGCUGGCGCCGGCUGGGCAACAUUCCAAGGGGACCGUCCCCUCGGUAAUGGCGAAUGGGACCCA [C19A G50A] | 0.0231 |
| GGCCGGCAUGGUCCCAGCAUCCUCGCUGGCGCCGGCUGGGCAACAUUCCUAGGGGACCGUCCCCUCGGUAAUGGCGAAUGGGACCCA [C19A G50U] | 0.254 |
| GGCCGGCAUGGUCCCAGCAUCCUCGCUGGCGCCGGCUGGCCAACAUUCCGAGGGGACCGUCCCCUCGGUAAUGGCGAAUGGGACCCA [C19A G40C] | 0.0587 |
| GGCCGGCAUGGUCCCAGCAUCCUCGCUGGCGCCGGCUGGUCAACAUUCCGAGGGGACCGUCCCCUCGGUAAUGGCGAAUGGGACCCA [C19A G40U] | 0.0437 |
| GGCCGGCAUGGUCCCAGCAUCCUCGCUGGCGCCGGCUGGGCAACAUUCCGAGGGGACCGUCCCCUCGGUAAUCGCGAAUGGGACCCA [C19A G73C] | 0.058 |
| GGCCGGCAUGGUCCCAGCAUCCUCGCUGGCGCCGGCUGGGCAACAUUCCGAGGGGACCCUCCCCUCGGUAAUGGCGAAUGGGACCCA [C19A G59C] | 0.04 |
| GGCCGGCAUGGUCCCAGCAUCCUCGUUGGCGCCGGCUGGGCAACAUUCCGAGGGGACCGUCCCCUCGGUAAUGGCGAAUGGGACCCA [C19A C26U] | 0.929 |
| GGCCGGCAUGGUCCCAGCAUCCUCGCUGGCGCCGGCUUGGCAACAUUCCGAGGGGACCGUCCCCUCGGUAAUGGCGAAUGGGACCCA [C19A G38U] | 0.0346 |
| GGCCGGCAUGGUCCCAGCAUCCUCGCUGGCGCCGGCUGGGCAACAUUCAGAGGGGACCGUCCCCUCGGUAAUGGCGAAUGGGACCCA [C19A C49A] | 0.0504 |
| GGCCGGCAUGGUCCCAGCAUCCUCGCUGGCGCCGGCUGGGCAACAUUCGGAGGGGACCGUCCCCUCGGUAAUGGCGAAUGGGACCCA [C19A C49G] | 0.0733 |
| GGCCGGCAUGGUCCCAGCAUCCUCGCUGGCACCGGCUGGGCAACAUUCCGAGGGGACCGUCCCCUCGGUAAUGGCGAAUGGGACCCA [C19A G31A] | 0.117 |
| GGCCGGCAUGGUCCCAGCAUCCUCGCUGGCGCCGGCUGGGCAACAUUCCGAGGGGACCGUCCCCUCGGUAAUGGCGAAUGGGACUCA [C19A C85U] | 0.166 |
| GGCCGGCAUGGUCCCAGCAUCCUCGCUCGCGCCGGCUGGGCAACAUUCCGAGGGGACCGUCCCCUCGGUAAUGGCGAAUGGGACCCA [C19A G28C] | 0.0462 |
| GGCCGGCAUGGUCCCAGCAUCCUCGCUGGCGCCGGCUGGGCAACAUUCCGAGGGGACCGUCCCCUCGGUAAUGGAGAAUGGGACCCA [C19A C75A] | 0.185 |
| GGCCGGCAUGGUCCCAGCAUCCUCCCUGGCGCCGGCUGGGCAACAUUCCGAGGGGACCGUCCCCUCGGUAAUGGCGAAUGGGACCCA [C19A G25C] | 0.0386 |
| GGCCGGCAUGGUCCCAGCAUCCUCGCUGGCGCCGGCUGGGCAACAUUCCGAGGGGACCGUCCCCUCGGUAAUGGCGAAUGCGACCCA [C19A G81C] | 0.0272 |
| GGCCGGCAUGGUCCCAGCAUCCUCGCUGGCGCUGGCUGGGCAACAUUCCGAGGGGACCGUCCCCUCGGUAAUGGCGAAUGGGACCCA [C19A C33U] | 0 |
| GGCCGGCAUGGUCCCAGCAUCCUCGCUGGCGCAGGCUGGGCAACAUUCCGAGGGGACCGUCCCCUCGGUAAUGGCGAAUGGGACCCA [C19A C33A] | 0.0852 |
| GGCCGGCAUGGUCCCAGCACCCUCGCUGGCGCCGGCUGGGCAACAUUCCGAGGGGACCGUCCCCUCGGUAAUGGCGAAUGGGACCCA [C19A U20C] | 0 |
| GGCCGGCAUGGUCCCAGCAUCCUCGCUGGCGCCGGCUGGGCAACAUUCCGAGGGGACCGUCCCCUCCGUAAUGGCGAAUGGGACCCA [C19A G67C] | 0.0615 |
